# Reference: PMC3866193
# B1: EGFP-GluA2 ATD fusion protein (domain or fragment)
# chain: NSIQIGGLFPRGADQEYSAFRVGMVQFSTSEFRLTPHIDNLEVANSFAVTNAFCSQFSRGVYAIFGFYDKKSVNTITSFCGTLHVSFITPSFPTDGTHPFVIQMRPDLKGALLSLIEYYQWDKFAYLYDSDRGLSTLQAVLDSAAEKKWQVTAINVGNINNDKKDETYRSLFQDLELKKERRVILDCERDKVNDIVDQVITIGKHVKGYHYIIANLGFTDGDLLKIQFGGANVSGFQIVDYDDSLVSKFIERWSTLEEKEYPGAHTATIKYTSALTYDAVQVMTEAFRNLRKQRIEISRRGNAGDCLANPAVPWGQGVEIERALKQVQVEGLSGNIKFDQNGKRINYTINIMELKTNGPRKIGYWSEVDKMVVTLTELPS
# modifications: not checked
# Columns and labels:
# [1] = target: EGFP-GluA2 ATD fusion protein; experiment: AUC; fluorescence-detected sedimentation velocity (FDS-SV), dilution series of labeled protein (Figure 3); 50,000 rpm, 20°C; 20 mM Na phosphate pH 7.5, 150 mM NaCl, 1 mM EDTA, 0.1 mg/mL BSA carrier; sw isotherm fitted with a monomer-dimer model; dimer to monomers
# [2] = target: Alexa Fluor 568-labeled GluA2 amino terminal domain; experiment: FRET or BRET; kinetic FRET in a spectrofluorometer, 20°C, excitation 495 nm, emission 603 nm; 50 nM donor-labeled and 50 nM AF568-labeled GluA2 ATD pre-equilibrated (30 min DL488, 60 min FAM), then 1 µM unlabeled GluA2 ATD added; decay fitted with exponential functions
# Sequence of Alexa Fluor 568-labeled GluA2 amino terminal domain (P19491 whole entry, the tested form may be a part): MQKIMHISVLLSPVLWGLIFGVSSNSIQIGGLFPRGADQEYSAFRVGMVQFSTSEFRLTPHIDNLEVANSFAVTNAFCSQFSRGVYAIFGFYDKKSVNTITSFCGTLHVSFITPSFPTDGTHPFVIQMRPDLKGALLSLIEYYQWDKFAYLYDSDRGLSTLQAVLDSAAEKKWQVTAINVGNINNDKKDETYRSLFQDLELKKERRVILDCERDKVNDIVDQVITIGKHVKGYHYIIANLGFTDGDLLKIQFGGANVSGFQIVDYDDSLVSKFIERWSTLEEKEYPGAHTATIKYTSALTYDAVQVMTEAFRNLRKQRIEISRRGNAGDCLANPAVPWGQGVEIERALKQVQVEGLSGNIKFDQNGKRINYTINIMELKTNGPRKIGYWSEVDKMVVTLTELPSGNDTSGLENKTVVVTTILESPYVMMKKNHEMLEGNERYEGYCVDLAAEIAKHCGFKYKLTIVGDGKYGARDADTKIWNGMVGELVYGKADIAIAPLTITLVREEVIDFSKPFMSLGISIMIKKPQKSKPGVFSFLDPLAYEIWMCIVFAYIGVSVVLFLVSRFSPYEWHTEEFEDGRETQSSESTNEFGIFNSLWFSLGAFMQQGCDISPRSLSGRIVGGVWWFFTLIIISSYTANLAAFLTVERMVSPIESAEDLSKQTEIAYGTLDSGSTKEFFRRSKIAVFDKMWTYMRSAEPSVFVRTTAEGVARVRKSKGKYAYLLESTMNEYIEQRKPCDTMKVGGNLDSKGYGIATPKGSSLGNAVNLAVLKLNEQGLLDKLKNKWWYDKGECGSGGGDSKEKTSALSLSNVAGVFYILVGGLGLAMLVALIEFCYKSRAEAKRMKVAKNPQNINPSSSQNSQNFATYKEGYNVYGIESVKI
binder,measurement,setting,value
B1,Kd,[1],25.4 nM
same,stoichiometry N,[1],2
same,half life of the donor/acceptor heterodimer (single-exponential decay),[2],3.27 min
